Results on 72 sequences are retold here after the supplement of paper PMC10567573.

± gives the standard deviation.

The series in a line: protein stability index of a GFP-peptide fusion (GPS, HEK-293T) (PSI 1-6); higher = more stable.
[1] abbreviates: treatment: DMSO, c terminus: a fixed tail appended.
Where [2] appears, read: treatment: MLN4924 1 uM, 8 h, c terminus: a fixed tail appended.
The mark [3] stands for this setting: treatment: DMSO, c terminus: native.
The mark [4] stands for this setting: treatment: MLN4924 1 uM, 8 h, c terminus: native.
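Note: 24-mer peptide tiles fused after GFP, lentivirally expressed, FACS-sorted into six equal bins by GFP/DsRed ratio, decoded by Illumina sequencing, PSI is the read-weighted mean bin number.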

Regarding RQLAYSTVGTPDYIAPEVFMQTGY [STK38L], the protein stability index is, setting by setting: under setting [1], 3.06 ± 0.46; under setting [2], 3.29 ± 0.42.

Take RRCGELKRKLGLTALVGLRQNLSK [TPD52L3]: the protein stability index by setting is: under setting [1], 2.41 ± 0.34; under setting [2], 2.57 ± 0.16.

For the sequence RRCTNIRPGETGMDVTSRCTLGDP [KLHL20], the protein stability index reads like this: under setting [1], 3.99 ± 0.24; under setting [2], 4.13 ± 0.21.

Take RRGRSPKGEFKDEEETVTTKHIHI [CLINT1]: the protein stability index by setting is: under setting [1], 4.78 ± 0.14; under setting [2], 4.73 ± 0.26.

RRLAQEPLGLEVDQFLEDVRLQER [NOP53]: the protein stability index was 4.5 ± 0.16 under setting [1] and 4.54 ± 0.13 under setting [2].

As for RRSSLVITTKIFWGGKAETERGLS [KCNAB2], the protein stability index by setting is: under setting [1], 2.09 ± 0.42; under setting [2], 2.15 ± 0.29.

Turning to RSETFLEVWGNALLRPPVAAFVRA [DNAAF3], the protein stability index was found to be 2.22 ± 0.21 under setting [1] and 2.34 ± 0.13 under setting [2].

In the case of RSFKEELLCAVCYDPFRDAVTLRC [TRIM35], the protein stability index is, setting by setting: under setting [1], 2.58 ± 0.63; under setting [2], 2.61 ± 0.61.

Regarding RSFSDKQKISLLHSCTCVLYTPSN [ALG2], the protein stability index under setting [1] came out at 2.17 ± 0.28 and the protein stability index under setting [2] came out at 2.1 ± 0.32.

In the case of RSRIEALELLGASFANDRENYDII [FEM1B], the protein stability index by setting is: under setting [1], 3.42 ± 0.27; under setting [2], 3.52 ± 0.14.

For the sequence RSTCNVVQDEFLDTPCTNRGLPLL [DLC1], the protein stability index under setting [1] was found to be 3.21 ± 0.27 and the protein stability index under setting [2] came out at 3.21 ± 0.42.

With RSVEEAPVYSVPQLLSAMGSLCSL [SCNN1D], the protein stability index runs as follows: under setting [1], 2.44 ± 0.16; under setting [2], 2.59 ± 0.4.

Turning to RTIRHVYCKTSDGRVVPESQCQME [ADAMTSL2], the protein stability index under setting [1] stood at 4.08 ± 0.16 and the protein stability index under setting [2] is 4.09 ± 0.31.

As to RTLWSGLPATLVMTVPATAIYFTA [SLC25A39], the protein stability index is 3.07 ± 0.42 under setting [1] and 3.1 ± 0.68 under setting [2].

Regarding RVAHEPVAPPEDKESESEAKVDGE [CDS2], the protein stability index stood at 5.47 ± 0.21 under setting [1] and 5.63 ± 0.27 under setting [2].

Take RVHAGSKAALAALCPGDLIQAING [PDLIM4]: the protein stability index is, setting by setting: under setting [1], 2.95 ± 0.15; under setting [2], 3.03 ± 0.12.

RVKREFEPASAREAPASVVPFVRV [USP39]: the protein stability index is, setting by setting: under setting [1], 3.33 ± 0.57; under setting [2], 3.5 ± 0.24.

With RWKRRRSYSREHEGRLRYPSRREP [CLK3], the protein stability index amounted to 3.86 ± 0.39 under setting [1] and 4.14 ± 0.36 under setting [2].

Take RWSRVGGQRFYSRVLSPLHRGPSG: the protein stability index is, setting by setting: under setting [1], 2.9 ± 0.27; under setting [2], 2.72 ± 0.42.

As for RYEPDSKAFGVGVAYRSLGRFEQL [FSD1], the protein stability index reads like this: under setting [1], 2.48 ± 0.38; under setting [2], 2.63 ± 0.33.

As to SAEQLKAQAIDFINRCSVLRQLGC [SPOPL], the protein stability index reads like this: under setting [1], 2.21 ± 0.33; under setting [2], 2.51 ± 0.28.

In the case of SAFTAAHELGHVFNMLHDNSKPCI [ADAMTS4], the protein stability index runs as follows: under setting [1], 2.93 ± 0.094; under setting [2], 3 ± 0.19.

Take SAGIAKLEEGDELQLAIPRENAQI [TNFSF13B]: the protein stability index is 5.08 ± 0.25 under setting [1] and 4.97 ± 0.23 under setting [2].

Turning to SAIVLGDLKLRKFVFSTEERTQLR [TRIB1], the protein stability index reads like this: under setting [1], 2.77 ± 0.48; under setting [2], 2.92 ± 0.29.

For the sequence SALFAGNEWRRPIIQFVESGDDKN [TRIM29], the protein stability index is, setting by setting: under setting [1], 4.37 ± 0.23; under setting [2], 4.13 ± 0.25.

In turn, SASHYKLQVIKALKSSGLCESLTY [M1AP] displayed a protein stability index under setting [1] of 2.03 ± 0.41 and a protein stability index under setting [2] of 2.25 ± 0.59.

On to SCKEGLSPRGPAPGEEKFENLEGV [ZNF263], for which the protein stability index is, setting by setting: under setting [1], 5.37 ± 0.16; under setting [2], 5.23 ± 0.36.

On to SDDLERTIEERVNILFDFVKKKKE [EIF5], for which the protein stability index by setting is: under setting [1], 3.97 ± 0.19; under setting [2], 4.2 ± 0.32.

On to SDENGGTYVSPPGNEEEESKIFTT [DDIT3], for which the protein stability index reads like this: under setting [1], 5.53 ± 0.36; under setting [2], 5.49 ± 0.31.

SEAKADKILAEAAKLVPMGFTTAT [RAD51]: the protein stability index is, setting by setting: under setting [1], 3.93 ± 0.25; under setting [2], 3.93 ± 0.13.

As to SEASKAFQMEKIEHGYENMNHFTV [TRIM55], the protein stability index by setting is: under setting [1], 3.29 ± 0.21; under setting [2], 3.38 ± 0.28.

SEAWEYFHLAPARAGHHPNQYATC [ZBED2]: the protein stability index is, setting by setting: under setting [1], 2.59 ± 0.26; under setting [2], 2.58 ± 0.23.

Turning to SEDMWGDEDFTFGAYQPTVVSSEG [FBF1], the protein stability index is, setting by setting: under setting [1], 4.53 ± 0.23; under setting [2], 4.84 ± 0.23.

For the sequence SFAILRIIRLVRVFRIFKLSRHSK [KCNA4], the protein stability index is, setting by setting: under setting [1], 2.2 ± 0.4; under setting [2], 2.44 ± 0.15.

As for SFSGKVFPFFAVWKKGSCLTLKG [TRIM15], the protein stability index came to 3.25 ± 0.88 under setting [3] and 2.92 ± 0.61 under setting [4].

For the sequence SGSDSGGSSSSSSSSINSPDRASG [FAM104A], the protein stability index is, setting by setting: under setting [1], 5.36 ± 0.33; under setting [2], 5.47 ± 0.11.

Regarding SGVVRIWDLRDQSVVRDLKGYPDG [TLE6], the protein stability index stood at 3.3 ± 0.31 under setting [1] and 3.42 ± 0.23 under setting [2].

For the sequence SHRVVLRPRGKERHKSGVHQPPQA [LYSMD4], the protein stability index was found to be 3.91 ± 0.2 under setting [1] and 3.98 ± 0.3 under setting [2].

Regarding SIPVTELSASGPFESHDLLRKGFS [POMP], the protein stability index reads like this: under setting [1], 3.5 ± 0.25; under setting [2], 3.39 ± 0.34.

For SKIPFKILSGHEHAVSTCHFCVDD [WDR88], the protein stability index was found to be 2.91 ± 0.25 under setting [1] and 3.07 ± 0.26 under setting [2].

In turn, SKSKEEVSSLISEKTNGATPLLMA [FEM1C] came in with a protein stability index under setting [1] of 4.26 ± 0.42 and a protein stability index under setting [2] of 4.49 ± 0.24.

Regarding SLFCLEDKELLCCSCQADPRHQGH [TRIM35], the protein stability index was 3.06 ± 0.16 under setting [1] and 3.35 ± 0.4 under setting [2].

With SLGVDTLPPPDPNPPRAEFNYSVG [APBB1IP], the protein stability index by setting is: under setting [1], 4.1 ± 0.31; under setting [2], 4.44 ± 0.22.

As to SLLSLPVWVLMDEDVRIFFYQSPY [NCF4], the protein stability index by setting is: under setting [1], 2.56 ± 0.24; under setting [2], 2.66 ± 0.47.

In the case of SLNELMIVIGILSAYISNYAFANV [SLC2A12], the protein stability index runs as follows: under setting [1], 3.35 ± 0.31; under setting [2], 3.18 ± 0.39.

With SLRENDFIEIELDRQELTYQELLR [ANKRD40], the protein stability index is, setting by setting: under setting [1], 3.37 ± 0.62; under setting [2], 3.57 ± 0.39.

As for SMALTCTFNRWGTLLAVGCNDGRI [RBBP5], the protein stability index is, setting by setting: under setting [1], 2.48 ± 0.33; under setting [2], 2.35 ± 0.34.

With SNLSVENVADTLVLADLHSAEQLK [SPOPL], the protein stability index runs as follows: under setting [1], 4.65 ± 0.27; under setting [2], 4.61 ± 0.19.

As for SNYYVAHPPVTYSQPYPTWLPCN [TENT5C], the protein stability index runs as follows: under setting [3], 3.25 ± 0.19; under setting [4], 3.44 ± 0.68.

Sequence SPDGALLATASYDTRVYIWDPHNG [WSB1] displayed a protein stability index under setting [1] of 2.5 ± 0.41 and a protein stability index under setting [2] of 2.51 ± 0.6.

As for SPKYKQDVEGAESQLDEDEHGLHT [TRAF3IP2], the protein stability index is, setting by setting: under setting [1], 5.45 ± 0.14; under setting [2], 5.5 ± 0.27.

Consider SPRDLQFSEIRETSAKVNWMPPPS [TNXB], for which the protein stability index is, setting by setting: under setting [1], 3.73 ± 0.23; under setting [2], 3.69 ± 0.29.

For SPSVPCIFCEEHFPVAEQDKLLKH [ZNF277], the protein stability index reads like this: under setting [1], 4.16 ± 0.24; under setting [2], 4.37 ± 0.084.

On to SQCQMETKPLAIHPCGDKNCPAHW [ADAMTSL2], for which the protein stability index is, setting by setting: under setting [1], 3.91 ± 0.62; under setting [2], 4.53 ± 0.31.

Consider SQEAADTPDTRHPCSLGSSLVADY [YJU2B], for which the protein stability index runs as follows: under setting [1], 4.34 ± 0.35; under setting [2], 4.59 ± 0.21.

The sequence SQHCKPEEGLEARGEALGLVGAQA [MAGEA3] registered a protein stability index under setting [1] of 4.73 ± 0.2 and a protein stability index under setting [2] of 4.73 ± 0.22.

Consider SQRQAKELKLEQQEAAERESKLLR [LRRC45], for which the protein stability index under setting [1] was found to be 5.17 ± 0.28 and the protein stability index under setting [2] worked out at 5.22 ± 0.1.

For SRELSLRPSRSGAQQLEEEGPMEE [EID1], the protein stability index by setting is: under setting [1], 5.58 ± 0.29; under setting [2], 5.64 ± 0.12.

The sequence SRETECSRVGKQSFIITLGCNSVL [CARM1] had a protein stability index under setting [1] of 2.3 ± 0.66 and a protein stability index under setting [2] of 2.09 ± 0.38.

On to SREYKLVMLGAGGVGKSAMTMQFI [RIT1], for which the protein stability index runs as follows: under setting [1], 2.51 ± 0.46; under setting [2], 2.27 ± 0.42.

As for SRGYRNHRSSRETRDYAPPSRGHA [RBMY1A1], the protein stability index amounted to 4.63 ± 0.3 under setting [1] and 4.63 ± 0.4 under setting [2].

Consider SRILNEMRDQYEQMAEKNRRDAET [KRT16], for which the protein stability index stood at 4.65 ± 0.27 under setting [1] and 4.78 ± 0.27 under setting [2].

For the sequence SRKVTTNKLLLSIIILLELAILGG [VTI1B], the protein stability index turned out to be 2.98 ± 0.7 under setting [1] and 2.84 ± 0.65 under setting [2].

In the case of SRSRSRSRSNSRSRSYSPRRSRGS [SRSF1], the protein stability index is, setting by setting: under setting [1], 5.37 ± 0.24; under setting [2], 5.6 ± 0.2.

Take SSALACTLPTLPAKVYVGVKQEIA [NCF4]: the protein stability index stood at 3.2 ± 0.2 under setting [1] and 3.1 ± 0.35 under setting [2].

With SSCVKYLIFLSNFPFSLLGLLALA [TSPAN10], the protein stability index was 2.94 ± 0.35 under setting [1] and 2.93 ± 0.35 under setting [2].

As for SSFPPSPGPSPDVQLATLAQRVKE [AUP1], the protein stability index came to 5.1 ± 0.26 under setting [1] and 5.05 ± 0.15 under setting [2].

SSSDSDFDDEEPRKFYVHIKPAPA [FCHO1]: the protein stability index under setting [1] was determined as 4.5 ± 0.27 and the protein stability index under setting [2] worked out at 4.45 ± 0.084.

For SSSRPISPGLSYASHTVGFTPPTS [CCDC6], the protein stability index by setting is: under setting [1], 3.54 ± 0.22; under setting [2], 3.74 ± 0.15.

SSSSSFGSGFGGGYGGGLGAGFGG [KRT16]: the protein stability index reads like this: under setting [1], 2.65 ± 0.46; under setting [2], 2.89 ± 0.3.

Take SSVICNDITAYLFGFFFGRTPLIK [CDS1]: the protein stability index by setting is: under setting [1], 2.13 ± 1.2; under setting [2], 2.02 ± 0.082.

As to STCDTLGMADVGTVCDPARSCAIV [ADAMTS4], the protein stability index is, setting by setting: under setting [1], 3.92 ± 0.34; under setting [2], 3.69 ± 0.083.
